Measured values from patent publication US20180185504A1 (Regeneron, published 2018).
One block for each binder: values may come before it.

Key:
[1] = target: T1, human PRLR on cells (endogenous on T47D, T47D#11, MCF7); introduced in HEK293/hPRLR/STAT5-Luc, 293/hPRLR, … (human, UniProt P16471 25-622); test: FACS on T47D cells
T1 construct: no tag is stated for these lines; also called prolactin receptor
T1 sequence: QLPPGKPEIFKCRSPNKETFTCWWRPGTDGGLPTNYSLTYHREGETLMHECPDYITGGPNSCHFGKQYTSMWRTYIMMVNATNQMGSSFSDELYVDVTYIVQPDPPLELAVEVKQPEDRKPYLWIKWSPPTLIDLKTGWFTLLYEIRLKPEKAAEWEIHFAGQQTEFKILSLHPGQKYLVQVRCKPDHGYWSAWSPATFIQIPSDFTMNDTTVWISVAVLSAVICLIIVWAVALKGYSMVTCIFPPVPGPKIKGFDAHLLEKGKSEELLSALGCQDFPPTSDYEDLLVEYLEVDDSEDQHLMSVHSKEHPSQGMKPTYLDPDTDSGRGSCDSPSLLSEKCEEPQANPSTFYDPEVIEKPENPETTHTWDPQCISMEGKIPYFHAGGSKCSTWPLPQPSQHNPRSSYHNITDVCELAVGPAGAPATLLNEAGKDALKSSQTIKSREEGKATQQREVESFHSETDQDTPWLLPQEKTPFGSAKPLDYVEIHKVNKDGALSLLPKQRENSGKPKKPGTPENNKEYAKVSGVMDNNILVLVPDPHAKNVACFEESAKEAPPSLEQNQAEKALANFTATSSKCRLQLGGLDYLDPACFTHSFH

[2] = target: T1, human PRLR on cells (endogenous on …); test: cell-based or functional assay
[3] = target: T1, human PRLR on cells (endogenous on …); test: cell-based or functional assay; remark: listed apart in the source
[4] = target: T2, human PRLR construct with an HA tag on HEK293/hPRLR cells (human, UniProt P16471 25-622); test: FACS on HEK293/hPRLR cells
T2 sequence: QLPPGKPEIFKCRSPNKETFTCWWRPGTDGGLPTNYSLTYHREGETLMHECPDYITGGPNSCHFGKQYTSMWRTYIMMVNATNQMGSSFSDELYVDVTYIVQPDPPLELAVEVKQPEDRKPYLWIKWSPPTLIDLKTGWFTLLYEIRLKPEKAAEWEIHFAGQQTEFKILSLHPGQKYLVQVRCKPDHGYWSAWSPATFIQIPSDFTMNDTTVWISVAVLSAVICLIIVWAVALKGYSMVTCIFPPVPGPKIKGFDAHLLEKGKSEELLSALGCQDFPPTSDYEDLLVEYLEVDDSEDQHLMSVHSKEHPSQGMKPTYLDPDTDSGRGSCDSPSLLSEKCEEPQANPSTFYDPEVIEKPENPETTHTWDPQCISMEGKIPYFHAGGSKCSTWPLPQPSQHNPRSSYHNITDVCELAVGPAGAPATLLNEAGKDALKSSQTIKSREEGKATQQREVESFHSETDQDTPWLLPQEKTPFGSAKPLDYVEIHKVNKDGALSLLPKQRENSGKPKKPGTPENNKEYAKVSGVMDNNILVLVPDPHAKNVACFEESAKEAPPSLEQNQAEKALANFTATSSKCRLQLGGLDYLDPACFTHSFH

[5] = target: T3, monkey macaca fascicularis PRLR construct with an HA tag on HEK293/mfPRLR cells (macaca fascicularis, UniProt A0A2K5WXK1 25-619); test: FACS on HEK293/mfPRLR cells
T3 construct: stably transfected into HEK293
T3 sequence: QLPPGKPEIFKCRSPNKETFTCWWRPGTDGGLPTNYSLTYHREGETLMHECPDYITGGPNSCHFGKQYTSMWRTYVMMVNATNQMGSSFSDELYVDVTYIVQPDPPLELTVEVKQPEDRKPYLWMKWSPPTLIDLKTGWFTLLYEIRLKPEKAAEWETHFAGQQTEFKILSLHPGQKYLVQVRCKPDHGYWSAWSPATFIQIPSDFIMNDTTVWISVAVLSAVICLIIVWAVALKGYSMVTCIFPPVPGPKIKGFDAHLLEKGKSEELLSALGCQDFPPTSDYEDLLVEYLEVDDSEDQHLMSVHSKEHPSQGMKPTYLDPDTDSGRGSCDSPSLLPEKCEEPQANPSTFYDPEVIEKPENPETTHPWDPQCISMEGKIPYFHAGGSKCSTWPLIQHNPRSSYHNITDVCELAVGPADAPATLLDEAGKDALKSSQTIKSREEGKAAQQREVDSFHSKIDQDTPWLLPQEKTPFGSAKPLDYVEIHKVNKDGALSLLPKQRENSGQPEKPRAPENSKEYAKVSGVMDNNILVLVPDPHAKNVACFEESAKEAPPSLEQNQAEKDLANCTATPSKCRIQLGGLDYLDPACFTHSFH

[6] = target: T4, hPRLR.mmh (soluble monomeric human PRLR) (human); test: SPR (Biacore), antibody capture, 37 C
T4 construct: soluble monomeric PRLR protein
T4 chain: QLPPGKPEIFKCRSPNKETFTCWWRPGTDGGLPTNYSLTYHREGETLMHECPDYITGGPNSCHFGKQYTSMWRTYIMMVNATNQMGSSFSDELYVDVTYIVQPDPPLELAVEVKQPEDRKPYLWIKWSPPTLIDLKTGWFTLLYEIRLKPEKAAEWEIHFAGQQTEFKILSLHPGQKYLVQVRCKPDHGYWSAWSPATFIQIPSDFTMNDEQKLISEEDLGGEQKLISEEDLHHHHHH
Protocol: (§1) Measurements were conducted on a T200 Biacore instrument. Kinetic association (kₐ) and dissociation (kd) rate constants were determined by processing and fitting the data to a 1:1 binding model using Scrubber 2.0 curve fitting software.

[7] = target: T5, hPRLR.mFc (soluble dimeric human PRLR) (human); test: SPR (Biacore), antibody capture, 37 C
T5 construct: dimeric PRLR construct
T5 chain: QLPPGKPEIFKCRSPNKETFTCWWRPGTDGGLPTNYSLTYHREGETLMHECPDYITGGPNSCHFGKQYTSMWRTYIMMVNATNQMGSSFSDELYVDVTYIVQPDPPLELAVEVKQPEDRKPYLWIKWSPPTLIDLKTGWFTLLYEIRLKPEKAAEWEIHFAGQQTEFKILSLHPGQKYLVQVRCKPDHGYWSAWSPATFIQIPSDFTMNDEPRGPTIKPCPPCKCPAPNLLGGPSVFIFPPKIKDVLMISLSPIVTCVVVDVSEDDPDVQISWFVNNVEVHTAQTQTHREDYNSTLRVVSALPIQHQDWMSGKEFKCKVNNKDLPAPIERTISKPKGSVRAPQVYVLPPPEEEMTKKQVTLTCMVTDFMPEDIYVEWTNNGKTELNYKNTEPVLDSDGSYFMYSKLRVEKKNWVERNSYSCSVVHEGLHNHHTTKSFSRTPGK
Protocol: as §1

[8] = target: T6, mfPRLR.mmh (soluble monomeric macaca fascicularis PRLR) (macaca fascicularis); test: SPR (Biacore), antibody capture, 37 C
T6 construct: soluble monomeric PRLR protein; also called macaca fascicularis (mf) PRLR.mmh; monkey PRLR
T6 chain: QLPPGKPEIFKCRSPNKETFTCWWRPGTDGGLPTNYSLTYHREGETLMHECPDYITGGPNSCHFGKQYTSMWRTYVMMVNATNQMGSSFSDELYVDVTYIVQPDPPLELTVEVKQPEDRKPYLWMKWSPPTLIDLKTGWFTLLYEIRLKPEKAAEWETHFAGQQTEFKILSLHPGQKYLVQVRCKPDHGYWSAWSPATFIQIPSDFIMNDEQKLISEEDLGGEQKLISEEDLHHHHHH
Protocol: as §1

[9] = target: T1, human PRLR on cells (endogenous on …); test: imaging of alexa488 intensity on T47D cells
Protocol: Briefly, 20,000 T47D cells were seeded in collagen coated 96 well plates. […] Cells were then incubated with alexa488 conjugated anti-hFc Fab secondary antibodies for 30 minutes on ice followed by two additional PBS washes. Antibodies were allowed to internalize for 1 h at 37° C. in internalization buffer (PBS+2% FBS) or remained at 4° C. Cells were fixed in 4% formaldehyde, nuclei were stained with DRAQ5 (Cell signaling), and images were acquired on the ImageXpress micro XL (Molecular Devices). Whole cell alexa488 intensity at 37° C. (Binding) and the alexa488 intensity in the intracellular vesicles at 37° C. (Internalization) were determined via Columbus image analysis software (PerkinElmer).

[10] = target: T7, mouse PRLR with an HA tag on HEK293 cells (mouse, UniProt Q08501 20-608); test: FACS on HEK293/mPRLR cells
T7 construct: whole, on cells; also called HEK293/mPRLR; rodent PRLR; not shown: HA tag
T7 sequence (looked up): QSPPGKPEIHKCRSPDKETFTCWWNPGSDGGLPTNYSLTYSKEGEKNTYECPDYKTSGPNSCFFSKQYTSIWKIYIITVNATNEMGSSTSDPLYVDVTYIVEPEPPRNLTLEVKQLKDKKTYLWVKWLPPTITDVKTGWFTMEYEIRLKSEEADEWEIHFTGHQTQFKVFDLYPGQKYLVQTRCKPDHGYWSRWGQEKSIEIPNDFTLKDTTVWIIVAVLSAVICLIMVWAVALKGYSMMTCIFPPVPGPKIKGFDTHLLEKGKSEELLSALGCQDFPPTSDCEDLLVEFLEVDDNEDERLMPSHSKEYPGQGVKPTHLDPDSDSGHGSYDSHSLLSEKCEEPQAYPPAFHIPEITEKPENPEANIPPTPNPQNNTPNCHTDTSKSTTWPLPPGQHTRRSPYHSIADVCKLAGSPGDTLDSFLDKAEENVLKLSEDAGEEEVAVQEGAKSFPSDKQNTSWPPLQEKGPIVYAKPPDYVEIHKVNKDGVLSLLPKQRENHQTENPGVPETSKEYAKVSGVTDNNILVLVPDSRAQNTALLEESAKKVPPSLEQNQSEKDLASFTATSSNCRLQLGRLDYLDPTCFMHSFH

FACS Cell Binding (Fold Above Background) [1]: 45 fold
% Internalization relative to Control I (T47D cells, imaging) [2]: 149%
IC50 of Blocking 5 nM PRL [M] (STAT5-Luc reporter, HEK293/hPRLR/STAT5-Luc cells) [3]: 1.4e-10 M
Percent Blocking at 100 nM Antibody (STAT5-Luc reporter) [3]: 100%
FACS Cell Binding (Fold Above Background) [4]: 47 fold
FACS Cell Binding (Fold Above Background) [5]: 88 fold
Kd [6]: 4.63 nM
T 1/2 [6]: 3 min
koff [6]: 0.00441 s⁻¹
kon [6]: 951000 M⁻¹ s⁻¹
Kd [7]: 0.279 nM
T 1/2 [7]: 52 min
koff [7]: 0.000221 s⁻¹
kon [7]: 793000 M⁻¹ s⁻¹
Kd [8]: 10.8 nM
T 1/2 [8]: 1 min
koff [8]: 0.00771 s⁻¹
kon [8]: 711000 M⁻¹ s⁻¹
% Total Binding relative to Control I [9]: 156%
B1: H1H6801P (antibody, human IgG1, V domains shown)
VH: QVQLQQSGPGLVKPSQTLSLTCVISGDSVSSNTAWNWVRQSPSRGLEWLGRTYYRSKWYNDYAVSVKSRITINPDTSKNQFSLLMNSVTPEDTAVYYCARVVRGLNYFDYWGQGTLVTVSS
VL: DIVMTQSPDSLAVSLGERATINCKSSQSVLYNSNNKNYLAWYQQKPGQPPKLLIYWSSSRESGVPDRFSGSGSGTDFTLTISGLQAEDVAIYYCQQYSTIPYTFGQGTKLEIK
notes: human IgG1 Fc (H1H)

binding result [10]: no binding
B2: H1H6797P (antibody, human IgG1, V domains shown)
VH: EVQLVESGGGLVQPGGSLRLSCIVSGFTFSGSWMSWVRQLPGKGLEWVANIKEDGSDSYYVDSVEGRFTISRDNAKSSLYLQMNSLRVDDTAVYFCARARTVPLHYWGQGTLVTVSS
VL: DIQMTQSPSTLSASVGDRVTITCRASQSINIWLAWYQQKPGKAPKLLIYRASYLESGVPSSFAGGGSGTEFTLTISSLQPDDFGTYYCQHYNSYPFTFGQGTKLEIK

binding result [10]: no binding
B3: H1H6793P (antibody, human IgG1, V domains shown)
VH: EVQLVESGGGLVQPGGSLRLSCAASGFSFSIYAMSWFRQAPGKGLEWVSAINGRGDGTHYADSVKGRFTISRDNSKTTLYLQMSSLRAEDTAVYYCAKPVMSTNGFDIWGQGTMVTVSS
VL: DIQMTQSPSTLSASVGDRVTITCRASQSISSWLAWYQLKPGKAPKLLIYKASNLESGVPSRFSGSGSGTEFTLTISSLQPDDFATYYCQQYNIYWTFGQGTKVEIK

binding result [10]: no binding
B4: H1H6800P (antibody, human IgG1, V domains shown)
VH: EVQLVESGGGLVQPGRSLRLSCAASGFTFDGYAMHWVRQGPGKGLEWVSGISWYSDTLGYADSVKGRFTISRDNAKNSLYLQMNSLRTEDTAFYYCAKISSSGWAFDYWGQGTLVTVSS
VL: EIVLTQSPGTLSLSPGERATLSCRASHSVSSAYLAWYQQKPGQTPRLLIYGTSSRATGIPDRFSGSGSGTDFTLTISRLEPEDFAVYYCQQYGSSPLFTFGPGTKVDIK

binding result [10]: no binding
B5: H1H6807P (antibody, V domains shown)
VH: QVQLVESGGGVVQPGRSLRLSCAASGFTFSDYNMHWVRQAPGKGLEWVAVIWYDGSNKHYADSVKGRFTISRDNSKNTLYLQMNSLRAEDTAVYYCARDGFTIFGMVLDYWGQGTLVTVSS
VL: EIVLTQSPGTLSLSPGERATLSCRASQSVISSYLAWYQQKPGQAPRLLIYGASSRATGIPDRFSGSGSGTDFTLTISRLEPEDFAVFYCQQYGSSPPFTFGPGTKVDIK

binding result [10]: no binding
B6: H1H6795P (antibody, human IgG1, V domains shown)
VH: QVQLVQSGAEVKKPGASVKVSCKASGYTFGTSGITWVRQAPGQGLEWMGWSSAYNGKTDYAQKFQDRVTMTTDTSTTTGYMEMRSLTSDDTAVYYCTTVVRRPFDFWGQGTLVTVSS
VL: DIQMTQSPSSLSASVGDRVTITCRASQDINNFLAWFQQKPGKAPKSLIYAASSLQSGVPSKFSGGGSGTDFALTISSLQPEDFATYYCQQYSSYPITFGQGTRLEIK

binding result [10]: no binding
B7: H1H6803P (antibody, human IgG1, V domains shown)
VH: EVQLVESGGGVVRPGGSLRLSCAASGFKFDDYGMTWVRHVPGKGLEWVSGINWNGGRTGYTDSVKGRFTISRDNAKNSLYLQMNSLRAEDTALYHCAGARRDAFDIWGQGTMVTVSS
VL: DIQMTQSPSSLSASIGDRVTITCRASQNIIKYLNWYQQNAGKAPKLLIYTASSLQSGVPSRFSGSGSGTDFTLTISSLQPEDFATYYCQQSSSSPYTFGQGTKLEIK
